The record followed here is article PMC8047169.

Experiment [1] deals with molybdenum-iron protein (MoFeP) of Gluconacetobacter diazotrophicus Mo-nitrogenase (Gluconacetobacter diazotrophicus).
For experiment [2] the target is unchanged. The source holds these as a separate data set.

B1: His-CowN (Gluconacetobacter diazotrophicus CowN, His-tagged, refolded, monomeric fraction) (natural protein)
chain: MTEQIDRYVSFRNVEWERRTAEVFALLQPHFDGSTSPFWDYFLRQRVIAHAQGLDDLRVLHNFLPTLKDLLEELDDERTLSRLEELEVLCM
Turning to B1, in experiment [1], the nitrogenase C2H2 reduction activity under 0.1 atm CO with 2 μM CowN against no CowN (0.2 μM MoFeP, 2 μM FeP) is 9 fold. In experiment [2], this molecule gave a KD^app from a hyperbolic fit of nitrogenase C2H2 reduction activity against CowN concentration under 0.001 atm CO (MoFeP with FeP, turnover conditions) of 0.4 µM and a KD^app from a hyperbolic fit of nitrogenase C2H2 reduction activity against CowN concentration under 0.1 atm CO (MoFeP with FeP, turnover conditions) of 1.08 µM.
